What was measured:
[1] = biological target: T1, mfTMPRSS2 knob_mmh (W106-R255).mmh (monkey); assay: SPR (Biacore 4000), mAb captured by anti-mouse Fc, HMM-mfTMPRSS2 as analyte, 25 C
T1 construct: also called mfTMPRSS2.mmh; HMM-mfTMPRSS2

[2] = biological target: T2, hTMPRSS2 knob_mmh (W106-R255).mmh (human); assay: SPR (Biacore 4000), mAb captured by anti-mouse Fc, HMM-hTMPRSS2 as analyte, 25 C
T2 construct: also called hTMPRSS2.mmh; HMM-hTMPRSS2

[3] = biological target: T2, hTMPRSS2 knob_mmh (W106-R255).mmh; assay: SPR (Biacore 4000), mAb captured by anti-mouse Fc, HMM-hTMPRSS2 as analyte, 37 C
[4] = biological target: T1, mfTMPRSS2 knob_mmh (W106-R255).mmh; assay: SPR (Biacore 4000), mAb captured by anti-mouse Fc, HMM-mfTMPRSS2 as analyte, 37 C

T1 sequence (chain, as listed by the source limits assumed): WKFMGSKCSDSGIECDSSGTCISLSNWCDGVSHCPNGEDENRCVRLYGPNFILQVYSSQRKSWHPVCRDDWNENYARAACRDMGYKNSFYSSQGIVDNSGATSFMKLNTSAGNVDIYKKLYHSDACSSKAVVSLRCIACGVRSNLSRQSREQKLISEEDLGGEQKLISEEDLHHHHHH
T2 sequence (chain, as listed by the source limits assumed): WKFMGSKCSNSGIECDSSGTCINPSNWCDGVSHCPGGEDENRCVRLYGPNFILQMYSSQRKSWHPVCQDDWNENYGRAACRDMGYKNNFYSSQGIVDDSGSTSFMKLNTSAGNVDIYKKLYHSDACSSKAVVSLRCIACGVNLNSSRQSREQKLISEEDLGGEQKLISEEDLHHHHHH

B1: H2aM7017N (antibody, V domains shown)
VH: QVQLVESGGGVVQPGRSLRLSCAASGFTFSSYGMHWVRQSPGKGLEWVAVIWNDGSYVYYADSVKGRFTISRDISKNTLFLQMNSLRAEDTAVYYCAREGEWVLYYFDYWGQGTLVTVSS
VL: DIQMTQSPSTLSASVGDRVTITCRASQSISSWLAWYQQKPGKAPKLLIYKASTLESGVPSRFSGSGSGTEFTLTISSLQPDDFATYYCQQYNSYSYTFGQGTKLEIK
notes: also called anti-TMPRSS2 monoclonal antibody (Biacore)
- Kd [1]: 56 nM
- koff [1]: 0.0157 s⁻¹
- kon [1]: 280000 M⁻¹ s⁻¹
- t½ [1]: 0.7 min
- Kd [2]: 2.81 nM
- koff [2]: 0.000745 s⁻¹
- kon [2]: 265000 M⁻¹ s⁻¹
- t½ [2]: 15.5 min
- Kd [3]: 9.31 nM
- koff [3]: 0.00323 s⁻¹
- kon [3]: 347000 M⁻¹ s⁻¹
- t½ [3]: 3.6 min
- Kd [4]: 140 nM
- koff [4]: 0.0512 s⁻¹
- kon [4]: 366000 M⁻¹ s⁻¹
- t½ [4]: 0.2 min
